The record followed here is US20150274826A1 (ARCH ONCOLOGY, published 2015).

Where a chain is given by its changes, count along the chain named. Names and notes keep the numbering of the source.

In assay [1] the target is T1, human CD47 (human, UniProt Q08722 19-323).
T1 construct: whole, on cells; also called CD47 on human RBCs; CD47 on OV10 cells
The experiment in a line: flow cytometry on RBCs, CHO supernatant 10 ng/ml. Here is the method:
(§1) RBCs are incubated for 60 minutes on ice with tissue culture supernatants containing the secreted humanized antibodies at a concentration of 10 ng/ml in a solution of phosphate buffered saline, pH 7.2, 2.5 mM EDTA (PBS+E), or with various concentrations of purified antibodies. Cells are then washed with cold PBS+E, and incubated for an additional hour on ice with FITC labeled donkey anti-human antibody (Jackson Immuno Research Labs, West Grove, Pa.; Catalogue #709-096-149) in PBS+E. Cells are then washed with PBS+E, and antibody binding is analyzed using a BD FACSAria Cell Sorter (Becton Dickinson) or a C6 Accuri Flow Cytometer (Becton Dickinson). Antibody binding is quantitated by comparison of mean fluorescence values relative to that of chimeric antibody >VxP037-01LC (SEQ ID NO:7))/>VxPO37-01HC (SEQ ID NO:57). The mean fluorescence value for each antibody is divided by the mean fluorescence value for the chimeric antibody.

For assay [2], the target named is T2, mouse CD47 (mouse, UniProt Q61735 19-303).
T2 construct: whole, on cells; also called CD47 on mouse RBCs; CD47 on 4T1 cells
T2 sequence (looked up): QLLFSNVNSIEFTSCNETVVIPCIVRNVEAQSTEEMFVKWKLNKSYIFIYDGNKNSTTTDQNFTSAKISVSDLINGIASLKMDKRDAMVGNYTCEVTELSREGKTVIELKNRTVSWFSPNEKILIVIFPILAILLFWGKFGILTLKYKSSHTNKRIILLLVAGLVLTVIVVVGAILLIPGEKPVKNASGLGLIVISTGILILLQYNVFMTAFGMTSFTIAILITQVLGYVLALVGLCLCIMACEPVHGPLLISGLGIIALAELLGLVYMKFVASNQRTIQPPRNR
Briefly: flow cytometry on RBCs, CHO supernatant 10 ng/ml. Here is the method: as §1
(In flow cytometry, cells or beads pass a laser one at a time.)

In assay [3] the target is T3, rat CD47 (rat, UniProt P97829 19-303).
T3 construct: whole, on cells; also called CD47 on rat RBCs
T3 sequence (looked up): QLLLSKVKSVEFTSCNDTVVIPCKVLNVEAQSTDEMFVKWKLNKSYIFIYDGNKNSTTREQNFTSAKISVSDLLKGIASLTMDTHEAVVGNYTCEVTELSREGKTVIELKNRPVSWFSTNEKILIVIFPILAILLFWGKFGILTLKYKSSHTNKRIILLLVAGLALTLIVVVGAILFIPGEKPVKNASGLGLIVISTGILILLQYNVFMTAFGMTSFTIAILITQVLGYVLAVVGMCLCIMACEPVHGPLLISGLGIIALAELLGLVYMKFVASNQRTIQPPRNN
Briefly: flow cytometry on RBCs, CHO supernatant 10 ng/ml. As for the experimental part:
as §1

Assay [4] addresses T4, pig CD47 (pig, UniProt Q9GKE8 19-303).
T4 construct: whole, on cells; also called CD47 on porcine RBCs
T4 sequence (looked up): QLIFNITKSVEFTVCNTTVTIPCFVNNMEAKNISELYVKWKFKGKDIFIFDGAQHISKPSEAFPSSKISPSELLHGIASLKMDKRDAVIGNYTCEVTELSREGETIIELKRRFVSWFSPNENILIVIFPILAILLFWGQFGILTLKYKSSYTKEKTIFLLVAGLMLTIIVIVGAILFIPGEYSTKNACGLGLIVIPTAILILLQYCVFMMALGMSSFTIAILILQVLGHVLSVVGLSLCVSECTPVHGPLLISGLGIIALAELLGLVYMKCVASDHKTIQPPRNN
Briefly: flow cytometry on RBCs, CHO supernatant 10 ng/ml. As for the experimental part: as §1

Assay [5] has as its target T5, dog CD47 (dog, UniProt A0A8I3PM61 19-310).
T5 construct: also called CD47 on dog RBCs
T5 sequence: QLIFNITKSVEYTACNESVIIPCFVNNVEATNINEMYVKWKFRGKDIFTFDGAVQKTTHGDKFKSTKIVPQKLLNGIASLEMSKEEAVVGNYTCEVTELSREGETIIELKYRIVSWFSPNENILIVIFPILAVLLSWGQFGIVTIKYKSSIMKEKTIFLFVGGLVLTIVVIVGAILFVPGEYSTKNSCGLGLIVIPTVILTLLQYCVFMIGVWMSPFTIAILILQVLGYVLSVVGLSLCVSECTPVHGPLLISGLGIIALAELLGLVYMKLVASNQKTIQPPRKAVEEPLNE
The experiment in a line: flow cytometry on RBCs, CHO supernatant 10 ng/ml. Here is the method: as §1

Assay [6] has as its target T2, mouse CD47. Briefly: cell-based ELISA on mouse 4T1 cells, apparent Kd. Here is the method:
(§2) OV10 cells are grown in IMDM medium containing 10% heat inactivated fetal bovine serum (BioWest; S01520) and 4T1 cells are grown in RMPI medium containing 10% heat inactivated fetal bovine serum (BioWest; S01520). One day before assay, 3×10⁴ cells are plated in 96 well cell bind plates (Corning #3300, VWR #66025-626) so that they are 95-100% confluent at the time of assay. Cells are washed and various concentrations of purified antibodies added in either IMDM or RPMI at 37° C. for 1 hour in […]. Cells are then washed with media and incubated for an additional hour at 37° C. with HRP labeled secondary anti-human antibody (Promega) diluted 1/2500 in media. Cells are washed three times with PBS, and the peroxidase substrate 3,3′,5,5′-tetramethylbenzidine is added (Sigma; Catalog #T4444). Reactions are terminated by the addition of HCl to 0.7N, and absorbance at 450 nm is determined using a Tecan model Infinite M200 plate reader. The apparent binding affinities of these clones to human and mouse cells is determined by non-linear fits (Prism GraphPad software). […] Agglutination of human RBCs is assessed following incubation of human RBCs with various concentrations of humanized blocking only clones. Blood is diluted (1:50) and washed 3 times with PBS/EDTA/BSA. RBCs are added to U-bottomed 96 well plates with equal volumes of the antibodies (75 μl) and incubated for 3 hrs at 37° C. and overnight at 4° C.
(An ELISA detects its analyte on a solid surface through an enzyme-linked reagent.)

In assay [7] the target is T1, human CD47. The experiment in a line: cell-based ELISA on human OV10 cells, apparent Kd. As for the experimental part: as §2

T1 sequence (Q08722 19-323): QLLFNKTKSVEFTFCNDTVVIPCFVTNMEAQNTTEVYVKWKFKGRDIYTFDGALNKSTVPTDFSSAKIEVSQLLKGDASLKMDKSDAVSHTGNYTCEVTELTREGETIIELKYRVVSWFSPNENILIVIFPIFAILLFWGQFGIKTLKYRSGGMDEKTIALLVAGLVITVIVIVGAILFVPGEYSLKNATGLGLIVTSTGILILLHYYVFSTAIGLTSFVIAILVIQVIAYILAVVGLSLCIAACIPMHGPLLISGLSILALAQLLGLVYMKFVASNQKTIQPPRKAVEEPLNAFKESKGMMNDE

B1: Clone 18 (pVxK7b-037-hum18-LC / pVxK7b-037-hum18-HC) (antibody, human IgG1, kappa, V domains shown)
VH: EVQLVQSGAEVKKPGESLRISCKGSGYTFTNYYVFWIRQSPSRGLEWLGDINPVNGDTNFNEKFKNRVTITADKSTSTAYMELSSLRSEDTAVYYCARGGYTMDYWGQGTLVTVSS
VL: EIVLTQSPATLSVSPGERATLSCRSSQSLVHSNGNTYLHWYQQKPGQAPRLLIYKVSYRFSGVPSRFSGSGSGTDFTFTISSLEAEDAATYYCSQNTHVPRTFGQGTKVEIKR
With B1, the “mean fluorescence relative to chimeric antibody” value in assay [1] is 1 ratio; in assay [2] it was 1.3 ratio; in assay [3], 2.2 ratio; in assay [4], 1.2 ratio; in assay [5] it was 1.5 ratio.

B2: Clone 14.1 (hum14 IgG1 N297Q) (antibody)
heavy: QVQLQESGPGLVKPSQTLSLTCTVSGYTFTNYYVFWVRQARGQRLEWIGDINPVNGDTNFNEKFKNRVTISADKSISTAYLQWSSLKASDTAMYYCARGGYTMDYWGQGTLVTVSSASTKGPSVFPLAPSSKSTSGGTAALGCLVKDYFPEPVTVSWNSGALTSGVHTFPAVLQSSGLYSLSSVVTVPSSSLGTQTYICNVNHKPSNTKVDKKVEPKSCDKTHTCPPCPAPELLGGPSVFLFPPKPKDTLMISRTPEVTCVVVDVSHEDPEVKFNWYVDGVEVHNAKTKPREEQYQSTYRVVSVLTVLHQDWLNGKEYKCKVSNKALPAPIEKTISKAKGQPREPQVYTLPPSR
light: DVVMTQSPLSLPVTLGQPASISCRSSQSLVHSNGNTYLHWYQQKPGKAPKLLIYKVSYRFSGVPDRFSGSGSGTDFTLKISRVEAEDVGVYYCSQNTHVPRTFGQGTKVEIKRTVAAPSVFIFPPSDEQLKSGTASVVCLLNNFYPREAKVQWKVDNALQSGNSQESVTEQDSKDSTYSLSSTLTLSKADYEKHKVYACEVTHQGLSSPVTKSFNRGEC
notes: IgG1 N297Q
As to B2, the Kd in assay [6] came out at 0.0949 nM; in assay [7] it was 0.0962 nM.

B3: Clone 13.2 (hum 13 IgG4 S228P L235E) (antibody)
heavy: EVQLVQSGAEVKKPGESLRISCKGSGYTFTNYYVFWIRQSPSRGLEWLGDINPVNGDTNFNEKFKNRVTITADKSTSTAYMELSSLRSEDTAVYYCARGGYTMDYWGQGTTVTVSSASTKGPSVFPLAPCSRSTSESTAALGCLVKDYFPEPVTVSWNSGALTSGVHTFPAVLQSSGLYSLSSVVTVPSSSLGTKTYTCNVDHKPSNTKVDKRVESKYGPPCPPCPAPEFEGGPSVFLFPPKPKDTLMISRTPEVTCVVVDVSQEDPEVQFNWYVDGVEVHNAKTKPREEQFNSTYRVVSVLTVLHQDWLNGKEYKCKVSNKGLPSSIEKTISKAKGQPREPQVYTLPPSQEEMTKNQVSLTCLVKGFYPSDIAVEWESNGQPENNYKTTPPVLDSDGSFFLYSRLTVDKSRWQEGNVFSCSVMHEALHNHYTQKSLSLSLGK
light: B2 light with V2I, S7T, L15P, Q17E
notes: IgG4 S228P L235E version of Clone 13
For B3, the Kd is 0.178 nM in assay [6] and 0.108 nM in assay [7].

B4: Clone 5.1 (hum05 IgG1 N297Q) (antibody)
heavy: QVQLQESGPGLVKPSQTLSLTCTVSGYTFTNYYVFWVRQAPGKGLEWVSDINPVNGDTNFNEKFKNRVTISVDTSKNQFSLKLSSVTAADTAVYYCARGGYTMDYWGQGTLVTVSSASTKGPSVFPLAPSSKSTSGGTAALGCLVKDYFPEPVTVSWNSGALTSGVHTFPAVLQSSGLYSLSSVVTVPSSSLGTQTYICNVNHKPSNTKVDKKVEPKSCDKTHTCPPCPAPELLGGPSVFLFPPKPKDTLMISRTPEVTCVVVDVSHEDPEVKFNWYVDGVEVHNAKTKPREEQYQSTYRVVSVLTVLHQDWLNGKEYKCKVSNKALPAPIEKTISKAKGQPREPQVYTLPPSR
light: B2 light with V2I, S7T, L15P, Q17E, Q42L, K47Q, A48S, K50Q
notes: IgG1 N297Q
With B4, the Kd in assay [6] worked out at 0.112 nM; in assay [7], 0.125 nM.

B5: Clone 5.2 (hum05 IgG4 S228P L235E) (antibody)
heavy: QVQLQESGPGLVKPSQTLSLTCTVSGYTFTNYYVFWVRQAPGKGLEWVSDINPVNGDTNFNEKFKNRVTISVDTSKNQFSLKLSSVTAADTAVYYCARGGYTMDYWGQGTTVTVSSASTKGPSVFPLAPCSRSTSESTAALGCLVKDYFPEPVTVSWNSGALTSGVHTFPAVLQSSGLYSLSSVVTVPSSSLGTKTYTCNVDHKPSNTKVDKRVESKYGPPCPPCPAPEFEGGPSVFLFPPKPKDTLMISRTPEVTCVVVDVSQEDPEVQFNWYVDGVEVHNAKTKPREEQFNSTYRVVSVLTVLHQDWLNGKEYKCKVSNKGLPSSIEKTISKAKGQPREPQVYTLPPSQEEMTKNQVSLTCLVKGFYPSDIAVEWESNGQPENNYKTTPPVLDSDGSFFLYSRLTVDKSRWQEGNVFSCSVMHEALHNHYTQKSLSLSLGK
light: B2 light with V2I, S7T, L15P, Q17E, Q42L, K47Q, A48S, K50Q
notes: IgG4 S228P L235E
Take B5: the values for the Kd in assay [6] and in assay [7] were 0.172 nM and 0.107 nM, respectively.

B6: Clone 1.2 (hum01 IgG4 S228P L235E) (antibody)
heavy: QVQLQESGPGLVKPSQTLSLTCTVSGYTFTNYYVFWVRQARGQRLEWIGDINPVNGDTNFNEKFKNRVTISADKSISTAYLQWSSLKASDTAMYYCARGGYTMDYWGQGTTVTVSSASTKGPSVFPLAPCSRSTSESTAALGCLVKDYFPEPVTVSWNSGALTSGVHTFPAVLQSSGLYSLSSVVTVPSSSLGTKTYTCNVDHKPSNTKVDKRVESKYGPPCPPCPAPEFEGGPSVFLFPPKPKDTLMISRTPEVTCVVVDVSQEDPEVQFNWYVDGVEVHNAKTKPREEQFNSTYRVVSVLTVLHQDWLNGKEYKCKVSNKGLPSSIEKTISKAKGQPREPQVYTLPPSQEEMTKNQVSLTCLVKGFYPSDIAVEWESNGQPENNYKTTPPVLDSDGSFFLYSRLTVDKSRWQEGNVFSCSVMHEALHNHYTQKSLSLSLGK
light: B2 light with V2I, S7T, L15P, Q17E
notes: IgG4 S228P L235E version of Clone 1; also called pVxK7b-037-hum01-HC-IgG4 S228P L235E-Pro
Regarding B6, the Kd was 0.175 nM in assay [6] and 0.15 nM in assay [7].

B7: Clone 14.2 (hum14 IgG4 S228P L235E) (antibody)
heavy: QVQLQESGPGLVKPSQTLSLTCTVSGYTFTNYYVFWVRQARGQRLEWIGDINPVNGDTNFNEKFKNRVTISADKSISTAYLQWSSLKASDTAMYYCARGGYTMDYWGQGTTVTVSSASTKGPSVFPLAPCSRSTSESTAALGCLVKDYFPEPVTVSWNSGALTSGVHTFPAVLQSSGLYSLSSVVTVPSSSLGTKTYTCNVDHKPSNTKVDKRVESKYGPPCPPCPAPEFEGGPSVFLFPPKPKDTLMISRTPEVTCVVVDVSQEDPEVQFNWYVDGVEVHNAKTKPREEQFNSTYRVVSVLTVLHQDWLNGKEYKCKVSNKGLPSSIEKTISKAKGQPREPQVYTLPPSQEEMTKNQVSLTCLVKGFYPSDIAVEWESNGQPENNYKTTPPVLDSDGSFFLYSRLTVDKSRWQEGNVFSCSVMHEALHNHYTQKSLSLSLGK
light: B2 light
notes: IgG4 S228P L235E
Turning to B7, the Kd in assay [6] amounted to 0.102 nM; in assay [7], 0.0899 nM.

B8: Clone 3.1 (hum03 IgG1 N297Q) (antibody)
heavy: EVQLVQSGAEVKKPGESLRISCKGSGYTFTNYYVFWVRQARGQRLEWIGDINPVNGDTNFNEKFKNRVTITADKSTSTAYMELSSLRSEDTAVYYCARGGYTMDYWGQGTLVTVSSASTKGPSVFPLAPSSKSTSGGTAALGCLVKDYFPEPVTVSWNSGALTSGVHTFPAVLQSSGLYSLSSVVTVPSSSLGTQTYICNVNHKPSNTKVDKKVEPKSCDKTHTCPPCPAPELLGGPSVFLFPPKPKDTLMISRTPEVTCVVVDVSHEDPEVKFNWYVDGVEVHNAKTKPREEQYQSTYRVVSVLTVLHQDWLNGKEYKCKVSNKALPAPIEKTISKAKGQPREPQVYTLPPSR
light: B2 light
notes: IgG1 N297Q
Regarding B8, the Kd was determined as 0.132 nM in assay [6] and 0.115 nM in assay [7].

B9: Clone 3.2 (hum03 IgG4 S228P L235E) (antibody)
heavy: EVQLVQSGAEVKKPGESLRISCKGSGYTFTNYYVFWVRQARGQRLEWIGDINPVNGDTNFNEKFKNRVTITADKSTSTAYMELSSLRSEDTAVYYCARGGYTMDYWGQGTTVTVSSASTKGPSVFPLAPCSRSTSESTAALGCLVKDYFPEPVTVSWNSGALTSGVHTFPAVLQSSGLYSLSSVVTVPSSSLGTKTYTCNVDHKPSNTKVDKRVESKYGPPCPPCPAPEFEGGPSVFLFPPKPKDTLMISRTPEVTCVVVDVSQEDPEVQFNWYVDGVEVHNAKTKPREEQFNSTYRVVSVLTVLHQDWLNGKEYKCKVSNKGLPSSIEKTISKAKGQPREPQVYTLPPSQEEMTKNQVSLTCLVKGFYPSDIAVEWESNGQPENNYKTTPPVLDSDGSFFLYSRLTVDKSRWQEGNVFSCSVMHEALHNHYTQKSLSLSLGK
light: B2 light
notes: IgG4 S228P L235E
Turning to B9, the Kd in assay [6] turned out to be 0.202 nM; in assay [7], 0.129 nM.

B10: Clone 16 (pVxK7b-037-hum16-LC / pVxK7b-037-hum16-HC) (antibody, human IgG1, kappa, V domains shown)
VH: QVQLQESGPGLVKPSQTLSLTCTVSGYTFTNYYVFWVRQARGQRLEWIGDINPVNGDTNFNEKFKNRVTISADKSISTAYLQWSSLKASDTAMYYCARGGYTMDYWGQGTLVTVSS
VL: AIQLTQSPSSLSASVGDRVTITCRSSQSLVHSNGNTYLHWYQQKPGQAPRLLIYKVSYRFSGVPDRFSGSGSGTDFTLKISRVEAEDVGVYYCSQNTHVPRTFGQGTKVEIKR
Turning to B10, the “mean fluorescence relative to chimeric antibody” value in assay [1] was found to be 0.9 ratio; in assay [2], 1 ratio; in assay [3] it was 2.1 ratio; in assay [4] it was 1.1 ratio; in assay [5], 1.1 ratio.

B11: Clone 17 (pVxK7b-037-hum17-LC / pVxK7b-037-hum17-HC) (antibody, human IgG1, kappa)
heavy: not shown
light: AIQLTQSPSSLSASVGDRVTITCRSSQSLVHSNGNTYLHWYQQKPGQAPRLLIYKVSYRFSGVPDRFSGSGSGTDFTLKISRVEAEDVGVYYCSQNTHVPRTFGQGTKVEIKRTVAAPSVFIFPPSDEQLKSGTASVVCLLNNFYPREAKVQWKVDNALQSGNSQESVTEQDSKDSTYSLSSTLTLSKADYEKHKVYACEVTHQGLSSPVTKSFNRGEC
With B11, the “mean fluorescence relative to chimeric antibody” value is 0.8 ratio in assay [1]; 0.9 ratio in assay [2]; 2.1 ratio in assay [3]; 1.3 ratio in assay [4]; 1.3 ratio in assay [5].
